This note sets out measurements from patent publication US20040138113A1, “Use of corticotroph-derived glycoprotein hormone to treat inflammation and potentiate glucocorticoid action” (priority 2002, published 2004).

Data set [1] has as its target thyroid-stimulating hormone (TSH) receptor (human) (UniProt P16473). Briefly: flow cytometry, human PBMC gated on CD4+ CD45RA+ naive CD4+ T cells; CGH-biotin 10 ug/ml then streptavidin-PE; background without CGH-biotin 3.5.
Data set [2] has the same target. Briefly: flow cytometry, human PBMC gated on CD56+ NK cells; CGH-biotin 10 ug/ml then streptavidin-PE; background without CGH-biotin 3.6.
The target is the same in data set [3]. In words: flow cytometry, human PBMC gated on CD4+ CD45RA- memory CD4+ T cells; CGH-biotin 10 ug/ml then streptavidin-PE; background without CGH-biotin 3.4. For orientation: A flow cytometer gives signals particle by particle.
For data set [4] the target is unchanged. Briefly: flow cytometry, human PBMC gated on CD14+ monocytes; CGH-biotin 10 ug/ml then streptavidin-PE; background without CGH-biotin 9.1.
For data set [5] the target is unchanged. In words: flow cytometry, human PBMC gated on CD3+ T cells; CGH-biotin 10 ug/ml then streptavidin-PE; background without CGH-biotin 4.3.
For data set [6] the target is unchanged. Briefly: flow cytometry, human PBMC gated on CD19+ B cells; CGH-biotin 10 ug/ml then streptavidin-PE; background without CGH-biotin 3.8.
Data set [7] has as its target thyroid-stimulating hormone (TSH) receptor (human), P16473. Briefly: cell-based or functional assay.
In data set [8] the test system is LPS-induced mild endotoxemia mouse model. Briefly: LPS-induced mild endotoxemia mouse model, serum cytokines by ELISA. In kind it is in vivo, C57B1/6 mice. The following applies: for effect on serum IL-6 levels / effect on serum TNFα levels: 2 mg/kg of the monomer, data not shown. On the procedure:
An in vivo experiment was designed to examine the effect of CGH in a mouse model of LPS-induced mild endotoxemia. This model mimics acute endotoxemia/sepsis by challenging mice with a low, non-lethal dose of bacterial endotoxin (lipopolysaccharide, LPS). Serum is collected at various timepoints (1-8 hours) after intraperitoneal LPS injection and analyzed for altered expression of a wide variety of pro- and anti-inflammatory cytokines and acute phase proteins that mediate the inflammatory response. The model provides a means to assess the potential anti-inflammatory effects of therapeutic candidates during a robust inflammatory response. To initially assess the model, we measured proinflammatory cytokines in a pilot experiment to collect reference data for the model.
C57B1/6 mice (Charles River Laboratories; 5 mice/group) were treated i.p. with PBS, 0.2 mg/kg CGH in PBS, or 2 mg/kg CGH in PBS 1 hour prior to LPS challenge. The mice were then challenged with 25 ug of LPS i.p. and bled at 1 hour and 4 hours after LPS injection. Serum was analyzed for TNFα (1 hour) and IL-6 (4 hours) levels by ELISA.
To determine if CGH would potentiate the effect of a sub-maximal dose of glucocorticoid, groups of 10 C57B1/6 mice each were treated i.p. with PBS, 0.15 or 1.5 mg/kg Dex, 2 mg/kg CGH, or a combination of CGH and low or high doses of Dex, 1 hour prior to injection of 25 ug LPS i.p. As shown in TABLE 3 (Expt #2), either 2 mg/kg CGH or 1.5 mg/kg Dex treatment alone (1 hour prior to LPS) caused a significant drop in serum TNFα levels at 1 hour, as observed in previous experiments. The effects of CGH administered in conjunction with Dex on inhibition of TNFα production were greater than either dose of Dex alone.
(ELISA stands for enzyme-linked immunosorbent assay.)

The target in data set [9] is T1, glycoprotein hormone beta 5 (GPHB5) (human, UniProt Q86YW7 25-130, one N-linked glycosylation (site not stated)).
T1 construct: Subunit co-expressed with GPHA2 in CHO cells; also called beta subunit of CGH
T1 sequence: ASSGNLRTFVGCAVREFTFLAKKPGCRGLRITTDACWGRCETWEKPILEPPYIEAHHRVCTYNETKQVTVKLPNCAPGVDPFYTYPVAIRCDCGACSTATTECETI
In words: co-expression in CHO cells (Example 5).

Data set [10] concerns neutrophils infiltrating the ears. In words: Neutrophil infiltration in ears of DTH mice, anti-Gr-1 immunohistochemistry and histomorphometry. In kind it is in vivo, C57B1/6 mice. The following applies: anti-Gr-1 staining, DTH experiment #1. The protocol: Ears from mice in DTH experiment #1 were analyzed by immunohistochemistry to assess which cell types were most affected by CGH treatment. Ears were fixed in Zinc/Tris buffer (2.3 mM calcium acetate/31.6 mM zinc acetate/36.7 mM zinc chloride in 0.1M Tris-HCL buffer, pH 7.4) for 24 hours at room temperature and stained with antibodies specific for CD4, CD8, CD11c, and Gr-1 (neutrophils). […] Ears were stained using a TechMate 500 autoimmunostainer (Biotech/Ventana) MIP protocol with some modifications. After drying the slides for 1 hour at 60° C., the sections were stained with a rat anti-mouse Gr-1 mAb (clone 7/4, Serotec, isotype rat IgG2a, used at 1.25 ug/ml final dilution), overnight at 4° C. This step was followed, after a wash, by biotinylated rabbit anti-rat IgG secondary antibody (Dako, used at 10 ug/ml in PBS with 2% normal rabbit serum and 2% nonfat dry milk) for 45 min. The sections were then washed and treated with HP Block (1.5% H2O2 in 50% methanol) 3 times, 7 min each, followed by 25 min in avidin-biotin complex, 3 times of 4 min each in DAB (Diaminobenzidine), then with Methyl green for 10 min.
Histomorphometry was performed to obtain the average pixel density of neutrophils per unit length (1 mm) present in the ear samples. […]

A further data set addresses T2, TSHR (Homo sapiens, UniProt P16473).
T2 construct: In adipose cells, sub-nanomolar levels of CGH stimulate release of free fatty acids (FFA); endogenous in cells
Briefly: Release of free fatty acids (FFA) from adipose cells. In kind it is cell-based.

In another data set the test system is adrenal cortex. Briefly: Adenoviral overexpression of CGH in mice, adrenal gland histopathology. In kind it is in vivo, C57BL6 mice. To be noted: GPHA2- and GPHB5-expressing adenovirus by tail vein, day 20, all eight mice. The text has this: Summary: Mice were exposed to CGH through infection with adenovirus particles expressing GPHA2 and GPHB5, leading to overexpression and secretion of CGH from the liver of these animals. […] The hypertrophy was apparent in the inner cortical layers, the zona fasciculata and the zona reticularis. Similarly, mice were exposed to CGH through intraperitoneal injection of recombinant CGH protein alone, recombinant CGH protein along with the glucocorticoid Dexamethasone (Dex), Dex alone, or PBS alone daily for two weeks.
Each group consisted of eight female C57BL6 mice. 7.5×10^11 particles each of GPHA2- and GPHB5-expressing adenovirus were administered by tail vein injection to the experimental group, while 1.5×10^11 particles of adenovirus expressing a parental vector alone were administered to the control group. Animals were sacrificed on day 20 following the injection and tissues were evaluated by a pathologist.

A further data set deals with thymus. The arrangement: species or system C57B1/6 mice. The following applies: mouse, in vivo. From the text: Since the receptor for CGH, TSH-R, is expressed by the adrenal glands, there was concern that the anti-inflammatory effects observed might be an indirect effect of increasing endogenous corticosteroid production in CGH-treated mice. One well-established side effect of increasing either exogenous or endogenous corticosteroid levels is substantial atrophy of the thymus, as the developing T cells are induced to undergo apoptosis. Therefore, the thymuses of the CGH and Dex-treated mice in the DTH experiments were analyzed. […] Thus, CGH seems to be mediating its anti-inflammatory effects in a manner distinct from that of exgenous glucocorticoids like Dex.

In another data set the test system is NCI-H295R. Briefly: CRE-luciferase reporter assay of cAMP-mediated gene induction in adrenal cortex cells. The following applies: purified CGH heterodimer. In kind it is cell-based, human. The text has this:
Summary: A human adrenal cortex cell line, NCI-H295R, was used to study signal transduction of CGH. NCI-H295R was transduced with recombinant adenovirus containing a reporter construct, a firefly luciferase gene under the control of cAMP response element (CRE) enhancer sequences. This assay system detects cAMP-mediated gene induction downstream of activation of Gs-coupled GPCR's (G-protein coupled receptors). […] Typically, CGH elicited a maximal response of 15-40-fold luciferase induction above control media.
NCI-H295R cells were obtained from the ATCC (CRL-2128, Manassas, Va.) and cultured in growth medium as follows: 1:1 mixture of Dulbecco's modified Eagle's medium and Ham's F12 medium with L-glutamine (D-MEM/F-12; GIBCO, cat.# 11320-033) containing 25 mM HEPES buffer (GIBCO, Invitrogen, Carlsbad, Calif., cat.# 15630-080), 1 mM sodium pyruvate (GIBCO, cat.# 11360-070), 1% ITS+1 media supplement (Sigma St. Louis, Mo. cat# 12521) and 2.5% Nu-Serum I (BD Biosciences, Lexington, Ky. cat.#355100). Cells were cultured at 37° C. in a 5% CO2 humidified incubator. […]
Promega's Luciferase Assay System (Promega, Madison, Wis., cat. # E1500) was used to process the treated cells. […] Luciferase activity was measured on a microplate luminometer (PerkinElmer Life Sciences, Inc., model LB 96V2R) following automated injection of luciferase assay substrate.
On the technique in general: In a reporter assay the amount or activity of a reporter protein is the signal.

The mark [11] stands for this setting: 2 mg/kg CGH 1 hour prior to LPS, Expt #1.

thyroid-stimulating hormone (TSH) receptor (human), sequence (P16473 21-764): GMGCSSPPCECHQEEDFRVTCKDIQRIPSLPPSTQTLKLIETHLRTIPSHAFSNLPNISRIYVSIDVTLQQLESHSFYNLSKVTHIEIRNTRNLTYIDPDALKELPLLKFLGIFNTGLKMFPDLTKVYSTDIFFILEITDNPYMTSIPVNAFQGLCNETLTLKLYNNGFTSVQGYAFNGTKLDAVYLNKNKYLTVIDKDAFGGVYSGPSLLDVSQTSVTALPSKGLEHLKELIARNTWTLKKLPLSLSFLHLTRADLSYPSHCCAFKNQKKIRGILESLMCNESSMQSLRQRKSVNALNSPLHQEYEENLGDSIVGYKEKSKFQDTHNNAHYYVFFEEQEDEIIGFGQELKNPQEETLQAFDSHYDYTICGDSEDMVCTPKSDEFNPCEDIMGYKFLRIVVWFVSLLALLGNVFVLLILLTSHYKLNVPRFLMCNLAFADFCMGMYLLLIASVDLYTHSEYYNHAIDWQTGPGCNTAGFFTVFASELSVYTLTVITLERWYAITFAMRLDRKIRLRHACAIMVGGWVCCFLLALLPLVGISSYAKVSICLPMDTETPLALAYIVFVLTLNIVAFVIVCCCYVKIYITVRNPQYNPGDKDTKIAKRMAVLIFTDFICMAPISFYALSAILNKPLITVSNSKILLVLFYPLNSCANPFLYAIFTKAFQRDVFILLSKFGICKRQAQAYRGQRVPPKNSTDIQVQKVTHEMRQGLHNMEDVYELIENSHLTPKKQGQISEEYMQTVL
thyroid-stimulating hormone (TSH) receptor (human), P16473, sequence (P16473 21-764): as above
T2 sequence (P16473 21-764, species assumed): as the sequence (P16473 21-764) above

“CGH-biotin (biotinylated corticotroph-derived glycoprotein hormone) (from UniProt Q96T91 24-129; Q86YW7 25-130) (ligand)”: the FL-2 MFI was 4.9 MFI in data set [1]; 11.9 MFI in data set [2]; 8.7 MFI in data set [3]; 56.4 MFI in data set [4]; 9.1 MFI in data set [5]; 12.9 MFI in [6].

B1: Corticotroph-derived glycoprotein hormone (CGH), purified recombinant heterodimer, Q96T91 24-129; Q86YW7 25-130 (ligand)
chain 1: QEAVIPGCHLHPFNVTVRSDRQGTCQGSHVAQACVGHCESSAFPSRYSVLVASGYRHNITSVSQCCTISGLKKVKVQLQCVGSRREELEIFTARACQCDMCRLSRY
chain 2: T1 sequence
modifications: here or on the partner: one N-linked glycosylation on the GPHB5 subunit (site not stated); two N-linked glycosylations on the GPHA2 subunit (sites not given)
For the molecule B1, in data set [7], the CRE-driven luciferase reporter induction (cAMP-mediated) in NCI-H295R human adrenal cortex cells fell in the range of 15 to 40 fold.

B2: zsig51: alpha subunit of CGH, glycoprotein hormone alpha2, previously called Zsig51; tested as monomer (protein)
chain: B1 chain 1
As to B2, in data set [8], the “effect on serum IL-6 levels” value was “neither of these monomers had any effect” and the “effect on serum TNFα levels” value is listed as “neither of these monomers had any effect”.

B3: glycoprotein hormone alpha2 (GPHA2) (ligand)
chain: B1 chain 1
modifications: two N-linked glycosylations (sites not given)
notes: Subunit co-expressed with GPHB5 in CHO cells; also called Zsig51; zsig51
In the case of B3, the binding result in [9] is “binds”.

B4: CGH: heterodimeric protein hormone of alpha subunit GPHA2 (SEQ ID NO:3) and beta subunit GPHB5 (SEQ ID NO:6) (protein, listed as Homo sapiens)
alpha: B1 chain 1
beta: T1 sequence
For the molecule B4, the “number of neutrophils infiltrating the ears compared to the PBS-treated controls” value in data set [10] is reported as “clear reduction”. Further, the “levels that stimulate release of free fatty acids (FFA)” value with TSHR was “sub-nanomolar”. Moreover, in the data set with TSHR (compared to TSH), the “molar concentration stimulating release of FFA, lower compared to TSH” value is given as 10 fold. Moreover, in the data set with adrenal cortex, the “histomorphological changes of the inner adrenal cortical cells” value is “profound hypertrophy and uniformly finely, foamy vacuolization”. In addition, in the data set on thymus, the “relative proportion of each thymocyte subset compared with the PBS-treated group” value is on record as “not significantly different”. Further, in data set [8] (setting [11]), the “increase of serum IL-6 levels at the 4 hour time point” value is on record as “about 70%” and the “reduction of the TNFα induction at the 1 hour time point” value is “about 60%”. For the same molecule, in the data set with NCI-H295R, the “dose-dependent induction of luciferase activity compared with 10 μM forskolin” value is recorded as “equal to or higher than that induced by 10 μM forskolin”.

B5: zlut1: monomer of CGH tested alone; not defined further, presumably the GPHB5 beta subunit (protein, UniProt Q86YW7 25-130, looked up)
Glycoprotein hormone beta-5: T1 sequence
In the case of B5, in data set [8], the “effect on serum IL-6 levels” value is “neither of these monomers had any effect” and the “effect on serum TNFα levels” value is recorded as “neither of these monomers had any effect”.
